{"source": "paper PMC7102982", "target": "Xenopus laevis FANCA, full length (Xenopus laevis)", "assay": "cryo-EM structure; single-particle cryo-EM of the purified FANCA-FANCG complex (0.8 mg/ml, 0.003% DDM); four classes: FANCA CTD dimer at 3.35 and 3.46 A, two FANCA-FANCG complexes at 4.59 and 4.84 A"}
{"substance": "Xenopus laevis FANCA, full length (natural protein)", "values": [{"measurement": "stoichiometry N", "result": 2}]}
